Laboratory results from the supplement of paper PMC9170038.

Tested on: MS2 coat protein
Experiment: apparent KD of MS2 coat protein; higher = weaker reporter binding
Settings: Eterna round: R107
Method in brief: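 With or without constant ligand, designed RNA switches in 100 mM Tris-HCl pH 7.5, 80 mM KCl and 4 mM MgCl2 were titrated with SNAP-549-labelled MS2 coat protein. Concentrations went up in twofold steps from 0.7 or 1.5 nM to 3 µM. The switches had been transcribed on-chip from Illumina sequencing clusters, and apparent KD is the per-design median of normalised cluster binding-curve fits.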

[1] = input ligand: theophylline 20 uM
[2] = input ligand: theophylline 2 mM
[3] = input ligand: tryptophan 2.4 mM

Sequence	apparent KD of MS2 coat protein (input ligand: arginine 13.2 mM)	apparent KD of MS2 coat protein [1]	apparent KD of MS2 coat protein [2]	apparent KD of MS2 coat protein (input ligand: none)	apparent KD of MS2 coat protein [3]
CCUAUGCAGUCGGCCGCCACUGAUAAAGUUAUCUUUACCUCAGAAACAUGAGGAUCACCCAUGUACAGGACCGGGACUGUAUAGG [Ex Tryptophan B 18]	14.8 nM	14.6 nM	15.9 nM	–	–
ACCAGGGUCUGAAGGAGCGCGAUUACAUGAGGAUCACCCAUGUGAAAUGGUAGAUGAUACUCGCAGGUAGGUCGCAGUACUUGGA [Same State Arginine B GF 14]	53.3 nM	164 nM	234 nM	107 nM	215 nM
AAACUUCGCAUAGGAAAACUAUGUGAAGAUCGAGGACCGGUACGGCCGCCACUCGUCCUCAACAUGAGGAUCACCCAUGUAAUAA [Mat - Exclusion - Trytophan A - D3]	22.8 nM	23.7 nM	23 nM	–	–
CUAUGUAUAUAUGCGAAAGCUACGUGUUGACGAGGACCGGUACGGCCGCCACUCGACAUGAGGAUCACCCAUGUAAUAUAUAUAG [BMP_BFE]	102 nM	173 nM	300 nM	–	–
GGGUACAUCGCGGCCGCCACUCAUGUAAAUGCGUGAGGAUCACCCAUGCCGAUGGAGACAUCGGAGAGGACCGGGUGAUGUACCG	27.9 nM	40 nM	52.7 nM	38.5 nM	46.7 nM
AAAGGAAGGUAAAAUAAAACUACAUGUGAAGGAGCGCCCGAAAGGGCAGGUAGGUCGCACAUGAGGAUCACCCAUGUCCUUCCAA [ArgEX 6 #SwitchBubble]	206 nM	315 nM	439 nM	319 nM	293 nM
AAUAAUAAGAAUAACGUACCAGGUGAUCAACGAGGACCGGUACGGCCGCCACUCGAAACAUGAGGAUCACCCAUGUAAUAACAAU [|T'-M'-Trp-Ms2|_Design 2_OL]	39.7 nM	107 nM	124 nM	–	–
AUAACAUGAGGAUCACCCAUGUAGAGUGAUACCAGACUAUGUAAUGUCCCUUGGCAGCACAAGUAAAGUUAUAAAUAAUGAUAGA [JR_SSTheophyA_Sub001]	89.3 nM	126 nM	–	–	136 nM
AAGCUGGGUGUAAAAUAAAUAAUCACUGAUACCAGACUAUGAGAUGUCCCUUGGCAGCAGAAACAUGAGGAUCACCCAUGUAAUA [JR_Nu_ExcTheophyA_Sub027]	21.4 nM	25.5 nM	–	–	27.1 nM
AACAUGAGGAUCACCCAUGUGUCCUCGAAACGAGGACCGGUACGGCCGCCACUCGGCGUAUGUUGACGAAAAGUCAGCAUACGCA [Mat - Exclusion - Trytophan A - D11]	81.8 nM	209 nM	255 nM	–	–
GGAAAAUAUAGGGAUACCAGAUAUGGCGUUGACAUGAGGAUCACCCAUGUCUUAGCAGUGAUCCCUUGGCAGCCCACACCAUCCG [theeternabot_sameState_MS2_Theo_B_13]	40.9 nM	61.3 nM	–	–	64.5 nM
AUAAUAAUGUCGGCCGCCACUAUAAACAUGAGGAACAUGAGGAUCACCCAUGUAUGAGGAUCACCUAGGACCGGGACUAAUAUUA [AstrosExyTryB#5]	33.9 nM	57.1 nM	52.9 nM	–	–
CUACAUGGGCUCGAUACCAGUCAGCUCUCGCGUCUCUCAGACAUGAGGAUCACCCAUGUUGACCCUUGGCAGCGACGAUGUAGGC [theeternabot_exclusion_MS2_Theo_B_46]	51.1 nM	123 nM	–	–	83.9 nM
AGCCAUGGAAACAUGGCGGCGGCAUGAGCGCGAGGACCGGUACGGCCGCCACUCGGGCAACAUGAGGAUCACCCAUGUUCCUCAU [ETA NP+V+V2 #20 +-Same Structure]	62.5 nM	140 nM	158 nM	101 nM	363 nM
CGGCCCUCAGAUGAGGAUCACCCAUCUGAUACCAGCCUGGAAACAGGCCCUUGGCAGCAGAAGGUCAUCAAAGAUGACCAAGCCG [TheoAX 30 #OpenEnded #AlternativeMS2]	10 nM	19.4 nM	89.1 nM	11.8 nM	12 nM
GAACAGUCGGACAUGAGGAUCACCCAUGUGCGAGGACCGGUACGGCCGCCACUCGACAAGGGCGGUCCCGAAGCGAACAUACGCG [Cecearla]	14.9 nM	43.4 nM	34.4 nM	–	–
AUGCACAUCUAGGAUACCAGCACCCUUAUGUCACUAGUUAACAUGAGGAUCACCCAUGUUUGCCCUUGGCAGCCUCAUUGACCAU [theeternabot_exclusion_MS2_Theo_B_9]	59.5 nM	92.7 nM	–	–	59.7 nM
UGAUUGAACGGAAGGAGCGUGAAGAGAGAGAAACAUGAGGAUCACCCAUGUAGAGAGAGAACACAGGUAGGUCGCCGAGAGAUUG [11.B]	14.5 nM	21.2 nM	14.7 nM	13.4 nM	11.2 nM
GGAUAGGACACGGCCGCCACUAGCUAGGAUACUAGCAACAUUUCCUCAUCUGAGGAUCACCCAGGUAGGACCGGGUGUCCUAUCG	172 nM	683 nM	1070 nM	–	565 nM

Sequence	apparent KD of MS2 coat protein (input ligand: arginine 13.2 mM)	apparent KD of MS2 coat protein [1]	apparent KD of MS2 coat protein [2]	apparent KD of MS2 coat protein (input ligand: none)	apparent KD of MS2 coat protein [3]
ACGUAAUGCAGAAGGAGCGUCUAUGUGUUACAUGAGGAUCACCCAUGUGUUAUGUUAUGUGGACAGGUAGGUCGCUGAAGUACGA [JR_SSArginiB_Sub005]	45 nM	104 nM	134 nM	127 nM	81 nM
AAGGUGAUCCGUGAUACCAGCUCAACAUGAGGAUCACCCAUGUAACGGACGAAAGUCCGGAGCCCUUGGCAGCACGGUAAUAAUA [(M)'-(Theo1)-(Ms2)-(Theo2)-(M'')_Design2b]	10.4 nM	15.1 nM	–	–	11.6 nM
GCACCAGGUACGGAUACCAGAGCAAGCCAAAUGAGUGAACAUGAGGAUCACCCAUGUUUGCUCCCUUGGCAGCCGUACCUGGUGC [ETB NP+V+V2 #11 +-Same Structure]	7.91 nM	12.2 nM	–	–	9.35 nM
GGUACAUGAGGAUCACCCAUGUAUUGGUACCGAGGACCGGUACGGCCGCCACUCGCAUGACAUGAGGAUCACCCAUGUGAAACCU [SSTA DOUBLE!!! :-D #12]	29.3 nM	51.6 nM	59.9 nM	–	–
GGGCGUGUGGUGCGGCGUGCUCCGCUCCGUCGAGGACCGGUACGGCCGCCACUCGACAUGAGGAUCACCCAUGUGCGAGCGCGCG [#1 Exclusion - Tryptophan A Attempt #9 (HarryS)]	16.3 nM	10.5 nM	14.4 nM	9.81 nM	24.4 nM
AAAGCCUUGCCCGGUGUUCCGAAAGUGGAAGGAGCGCACAUUGGUGCAGGUAGGUCGCCACAUGAGGAUCACCCAUGUCUAGGCU [Isbeat]	42.5 nM	107 nM	135 nM	34.1 nM	11.3 nM
GGUUGGUAUAUAUAUAUAUUGAUUACUGAAGGAGCGGGAAAUAACCCAGGUAGGUCGCAGAGAUCCACAUGAGGAUCACCCAUGU [!0.G]	24.3 nM	60.3 nM	56.8 nM	45.1 nM	39.1 nM
UCUGGGUCCGCAAGGACCUGGAGUUGCGAUACCAGCACGGUAACGUGCCCUUGGCAGCGCACAUGAGGAUCACCCAUGUGGUGUU [#1 Exclusion - Theophylline A Attempt #17 (HarryS)]	86.6 nM	365 nM	–	–	204 nM
CUCCCGUGGUCGGCCGCCACUGGAGGCUUUGCGCGACAUGAGGAUCACCCAUGUGUGCCCGGCGUCAGGACCGGGAUCGCGUGAG [#1 Same State - Tryptophan B Attempt #13 (HarryS)]	11.7 nM	16 nM	17.7 nM	14.6 nM	11.5 nM
AAAUAAAUAACUGAUACCAGUGGACUGACAUGAGGAUCACCCAUGUUGGGUUUUGUUGUCCACCCUUGGCAGCGGGCAUAUAAAA [#25 Exclusion-TheophyllineB]	23.4 nM	38.4 nM	–	–	26.8 nM
AGGAAACAACAUGAGGAUCACCCAUGUGAUACCAGUCAAAUAAAAGACCCUUGGCAGCACACAUGACAUGAGGAUCACCCAUGUA [AstrosSSTheA#1]	24.8 nM	41.5 nM	–	–	59.8 nM
GGACUAACCAGAAGGAGCGACACGCAGAAACUGCUAAUUCCUCCGCACGAGGAUCACCCGUGUCAGGUAGGUCGCUGGUUAGUCG [ArgBX 28]	20.3 nM	28.5 nM	24.3 nM	20.5 nM	23.3 nM
AGCCCUGUACUAGAUACCAGCUACAUGAGGAUCACCCAUGUACGAUAAGACUGUCCAUGUAGCCCUUGGCAGCUGCUCGCAUGUA [#13 Exclusion-TheophyllineB]	24.1 nM	41.3 nM	–	–	29.2 nM
ACAUGAGGAUCACCCAUGUACAUCACCCGACGAGGACCGGUACGGCCGCCACUCGGGUAUAUAUAUACAUCGGGUGAUUUUGCAU [#21 Tryptophan A Same State]	27.4 nM	108 nM	79.5 nM	20.9 nM	26.5 nM
AAUAUAUAGACGGCCGCCACUGGAACCAAUACAUGAGGAUCACCCAUGUGAAAAGGAUAGGUUCACAGGACCGGGUCUUCAUGUA [SS Tryp B Tesla 1.3]	40.5 nM	33.1 nM	61 nM	–	–
GCUGCCAUACGAAGGAGCGCUGUUGUAGUGAGGCGAACAUGAGGAUCACCCAUGUGGCAGCAGCAGGUAGGUCGCGUAUGGCAGC [EAB #13]	13.7 nM	35 nM	33.9 nM	18.6 nM	26 nM
UCGUUAUGGUCGGCCGCCACUCGCGGAGAGCAUAGCUCAAACAUGAGGAUCACCCAUGUAUCAUGGAGGACCGGGACCAUAACGU [Rxmullin variation #StaticStem]	30 nM	46.1 nM	42.7 nM	–	–
UGUACCAUGUCGGCCGCCACUCAUGAUAAGCAUGAGGAUCACCCAUGUAGCGUCAAAGACGCUAUGAGGACCGGGACAUGGUACU [TryBS Zipper 2]	34.3 nM	47.1 nM	41.2 nM	34.7 nM	13.2 nM
